Laboratory results taken from article PMC4209464.

How the values were obtained:
[1] = molecular target: Pyrococcus furiosus Chaperonin 60 with Ile138, with the last 22 amino acids deleted (PfCD) (Pyrococcus furiosus); assay: SEC
[2] = molecular target: Pyrococcus furiosus Chaperonin 60 with Ile138, with the last 22 amino acids deleted (PfCD) (Pyrococcus furiosus); assay: native gel or EMSA
[3] = molecular target: PfCD mutant Ile138His (Pyrococcus furiosus); assay: native gel or EMSA

Row | Substance | stoichiometry N [1] | stoichiometry N [2] | stoichiometry N [3]
1 | Pyrococcus furiosus Chaperonin 60 with Ile138, with the last 22 amino acids deleted (PfCD) (domain or fragment) | 16 | 16 | 
2 | PfCD mutant Ile138His (domain or fragment) |  |  | 16
